Common to all, as to settings: tags: C-terminal His6 (pET-22b, E. coli); label: Cy5
For data set [1], the target named is T1, CebR (SCAB57761) (Streptomyces scabies 87-22).
T1 chain: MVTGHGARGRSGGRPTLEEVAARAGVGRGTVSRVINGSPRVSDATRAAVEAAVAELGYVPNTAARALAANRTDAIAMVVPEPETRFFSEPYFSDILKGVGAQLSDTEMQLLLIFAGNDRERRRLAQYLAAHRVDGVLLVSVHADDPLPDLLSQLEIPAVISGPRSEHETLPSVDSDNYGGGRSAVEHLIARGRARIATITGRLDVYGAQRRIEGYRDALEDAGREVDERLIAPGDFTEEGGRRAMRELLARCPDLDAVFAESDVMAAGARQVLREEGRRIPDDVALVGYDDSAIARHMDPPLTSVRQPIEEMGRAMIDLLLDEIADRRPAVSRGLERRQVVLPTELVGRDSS
Description: EMSA; strong binding, positive control; excess nonspecific salmon sperm DNA; same buffer; inhibited by cellobiose.

Data set [2] concerns the target T1, CebR (SCAB57761). Description: EMSA; strong binding with 20-fold excess nonspecific salmon sperm DNA; same buffer; inhibited by cellobiose. In general terms: In EMSA bound probe runs differently from free probe, usually more slowly.
Data set [3] has as its target T1, CebR (SCAB57761). In words: EMSA; strong binding with 20-fold excess nonspecific salmon sperm DNA; 0.08-3.2 uM CebR; pH 7.5, 0.25 mM CaCl2, 0.5 mM MgCl2, 50 mM KCl, room temperature; inhibited by cellobiose.

B1: cbs bglC probe (dsDNA)
DNA 1: GGTTCAGGCATGGAAGCGCTCCCATTGGTGGTCG
DNA 2: CGACCACCAATGGGAGCGCTTCCATGCCTGAACC
With B1, the binding result in data set [1] is “binds”.

B2: cbs txtB probe (dsDNA)
DNA 1: CTCCCCCAGGGGGAGCGCTCCCACTGCGCTGTA
DNA 2: TACAGCGCAGTGGGAGCGCTCCCCCTGGGGGAG
Consider B2, for which the binding result in data set [2] is given as “binds”.

B3: cbs txtR-A probe (dsDNA)
DNA 1: TGTCAATAAGCGGGAGCGCTCCCACAGCGCTCTC
DNA 2: GAGAGCGCTGTGGGAGCGCTCCCGCTTATTGACA
For B3, the binding result in data set [3] is “binds”.

B4: cbs cebR-E probe (dsDNA)
DNA 1: CCAGGTACTGTGGGAGCGCTCCCACGAGTGATGT
DNA 2: ACATCACTCGTGGGAGCGCTCCCACAGTACCTGG
Regarding B4, in data set [1], the binding result was “binds”.

The record behind these values is patent publication US20170306368, “METHODS FOR THAXTOMIN PRODUCTION AND MODIFIED STREPTOMYCES WITH INCREASED THAXTOMIN PRODUCTION” (University of Florida Research Foundation, Inc., published 2017).
